Results on three proteins are retold here after PMC7057681 (ACS Omega, 2020).

Data set [1] concerns the molecule itself. The data set can be described thus: SEC. On the technique in general: SEC sorts molecules by how far they enter the pores of the column.
The data set “SEC-SAXS” deals with the molecule itself. Briefly: SEC-SAXS.
Data set [2] concerns the molecule itself. Briefly: SEC. The source holds these as a separate data set.

Where a chain is given by its changes, count along the chain named. Names and notes keep the numbering of the source.

B1: S100A3 R51Q mutant (natural protein, human)
chain: MARPLEQAVAAIVCTFQEYAGRCGDKYKLCQAELKELLQKELATWTPTEFQECDYNKFMSVLDTNKDCEVDFVEYVRSLACLCLYCHEYFKDCPSEPPCSQ
As to B1, the “stoichiometry N” value in “SEC [1]” worked out at 4; in the data set “SEC-SAXS”, 2.

B2: S100A3 R51E mutant (natural protein, human)
chain: B1 chain with Q51E
As for B2, the “stoichiometry N” value in “SEC [2]” turned out to be 4.

B3: citrullinated S100A3 (R51Z), WT S100A3 citrullinated in vitro by PAD3 (natural protein, human)
chain: B1 chain with Q51R
modifications: citrulline at R51 (by PAD3 in vitro)
Turning to B3, in “SEC [1]”, the “stoichiometry N” value stood at 4.

A word on the stoichiometry N: it is the number of molecules, sites or subunits per partner or assembly.
